# B1: Retinoblastoma-associated protein (Homo sapiens), P06400 (parent)
# chain: MPPKTPRKTAATAAAAAAEPPAPPPPPPPEEDPEQDSGPEDLPLVRLEFEETEEPDFTALCQKLKIPDHVRERAWLTWEKVSSVDGVLGGYIQKKKELWGICIFIAAVDLDEMSFTFTELQKNIEISVHKFFNLLKEIDTSTKVDNAMSRLLKKYDVLFALFSKLERTCELIYLTQPSSSISTEINSALVLKVSWITFLLAKGEVLQMEDDLVISFQLMLCVLDYFIKLSPPMLLKEPYKTAVIPINGSPRTPRRGQNRSARIAKQLENDTRIIEVLCKEHECNIDEVKNVYFKNFIPFMNSLGLVTSNGLPEVENLSKRYEEIYLKNKDLDARLFLDHDKTLQTDSIDSFETQRTPRKSNLDEEVNVIPPHTPVRTVMNTIQQLMMILNSASDQPSENLISYFNNCTVNPKESILKRVKDIGYIFKEKFAKAVGQGCVEIGSQRYKLGVRLYYRVMESMLKSEEERLSIQNFSKLLNDNIFHMSLLACALEVVMATYSRSTSQNLDSGTDLSFPWILNVLNLKAFDFYKVIESFIKAEGNLTREMIKHLERCEHRIMESLAWLSDSPLFDLIKQSKDREGPTDHLESACPLNLPLQNNHTAADMYLSPVRSPKKKGSTTRVNSTANAETQATSAFQTQKPLKSTSLSLFYKKVYRLAYLRLNTLCERLLSEHPELEHIIWTLFQHTLQNEYELMRDRHLDQIMMCSMYGICKVKNIDLKFKIIVTAYKDLPHAVQETFKRVLIKEEEYDSIIVFYNSVFMQRLKTNILQYASTRPPTLSPIPHIPRSPYKFPSSPLRIPGGNIYISPLKSPYKISEGLPTPTKMTPRSRILVSIGESFGTSEKFQKINQMVCNSDRVLKRSAEGSNPPKPLKKLRFDIEGSDEADGSKHLPGESKFQQKLAEMTSTRTRMQKQKMNDSMDTSNKEEK
# partner: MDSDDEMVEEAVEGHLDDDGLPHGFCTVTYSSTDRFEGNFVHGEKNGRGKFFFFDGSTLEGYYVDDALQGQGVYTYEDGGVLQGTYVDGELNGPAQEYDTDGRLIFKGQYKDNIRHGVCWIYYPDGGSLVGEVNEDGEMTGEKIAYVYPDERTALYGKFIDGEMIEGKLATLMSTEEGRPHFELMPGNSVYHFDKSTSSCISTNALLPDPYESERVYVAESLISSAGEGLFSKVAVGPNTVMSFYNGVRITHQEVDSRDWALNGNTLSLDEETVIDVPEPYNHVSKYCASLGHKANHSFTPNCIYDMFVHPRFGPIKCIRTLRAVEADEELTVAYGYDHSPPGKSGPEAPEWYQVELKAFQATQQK
# Variants of: B1
# Conditions: with setd7_human SETD7, Q8WTS6
row,effect of a mutation on the interaction,Variant
1,disrupting interaction,K810R
